Measurements from US6248712.

Columns and labels:
[1] = target: u-PA bound to u-PAR on the cell surface (human) (UniProt P00749)
[2] = target: u-PA bound to u-PAR on the cell surface (human) (UniProt P00749); assay: inhibition kinetics, u-PAR-bound u-PA on U937 cells against u-PA in solution
[3] = target: u-PA bound to u-PAR on the cell surface (human) (UniProt P00749); assay: association rate constant from inhibition kinetics of plasminogen activation by u-PAR-bound u-PA on U937 cells
[4] = target: human urokinase-type plasminogen activator, active two-chain 54 kD form (human) (UniProt P00749)
[5] = target: u-PA bound to u-PAR on the cell surface (human) (UniProt P00749); assay: association rate constant from inhibition kinetics of plasminogen activation by u-PAR-bound u-PA on PMA-stimulated U937 cells
[6] = target: u-PA bound to u-PAR on the cell surface (human) (UniProt P00749); assay: inhibition kinetics, u-PAR-bound u-PA on PMA-stimulated U937 cells against u-PA in solution
[7] = target: human single-chain pro-u-PA (human) (UniProt P00749)

Chain of plasminogen activator inhibitor type 2 (P05120 whole entry): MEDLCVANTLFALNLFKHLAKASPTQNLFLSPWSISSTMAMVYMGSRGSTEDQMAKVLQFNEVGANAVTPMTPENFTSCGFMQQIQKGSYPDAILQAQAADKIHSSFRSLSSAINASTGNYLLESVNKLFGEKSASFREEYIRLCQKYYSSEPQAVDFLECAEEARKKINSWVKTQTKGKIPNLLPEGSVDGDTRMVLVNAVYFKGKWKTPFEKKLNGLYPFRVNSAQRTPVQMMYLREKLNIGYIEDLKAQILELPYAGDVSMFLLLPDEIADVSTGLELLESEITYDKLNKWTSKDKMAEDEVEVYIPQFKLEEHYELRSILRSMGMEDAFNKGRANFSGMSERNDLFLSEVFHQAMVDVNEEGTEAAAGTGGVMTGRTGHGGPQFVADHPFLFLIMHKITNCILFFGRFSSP
Chain of human plasmin (P00747 97-810 limits assumed): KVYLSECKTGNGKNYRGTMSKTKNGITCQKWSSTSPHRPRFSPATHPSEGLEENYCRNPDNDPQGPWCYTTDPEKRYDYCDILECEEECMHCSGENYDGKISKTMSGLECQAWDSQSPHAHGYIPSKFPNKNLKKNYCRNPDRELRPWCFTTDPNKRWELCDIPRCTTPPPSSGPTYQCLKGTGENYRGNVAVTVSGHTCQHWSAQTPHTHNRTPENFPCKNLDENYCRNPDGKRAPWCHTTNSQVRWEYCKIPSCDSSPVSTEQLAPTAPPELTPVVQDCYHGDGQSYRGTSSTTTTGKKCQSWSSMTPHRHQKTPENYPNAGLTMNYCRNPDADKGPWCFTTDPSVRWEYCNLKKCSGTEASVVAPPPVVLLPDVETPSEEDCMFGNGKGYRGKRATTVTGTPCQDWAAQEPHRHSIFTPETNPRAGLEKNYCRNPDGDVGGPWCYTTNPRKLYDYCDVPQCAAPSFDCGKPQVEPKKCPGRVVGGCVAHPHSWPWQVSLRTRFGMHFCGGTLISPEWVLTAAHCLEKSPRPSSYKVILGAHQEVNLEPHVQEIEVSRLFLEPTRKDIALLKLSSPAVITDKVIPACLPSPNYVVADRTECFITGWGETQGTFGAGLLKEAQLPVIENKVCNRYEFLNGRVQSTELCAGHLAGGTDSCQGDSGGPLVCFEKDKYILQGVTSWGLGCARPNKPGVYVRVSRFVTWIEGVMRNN

## plasminogen activator inhibitor type 2 (from UniProt P05120)
[1]
  Bound plasmin activity (%) after preincubation of the cells and washing: 54%
[2]
  association-rate constant relative to u-PA in solution: 60%
[3]
  kon: 330000 M⁻¹ s⁻¹
[4]
  Bound plasmin activity (%) at 3 h and 17 h; u-PA activity in medium (%): 48%
[5]
  kon: 110000 M⁻¹ s⁻¹

## plasminogen activator inhibitor type 1 (from UniProt P05121)
[2]
  rate of inhibition relative to u-PA in solution: 60%
[6]
  rate of inhibition relative to u-PA in solution: 20%
[3]
  kon: 4.5e+06 M⁻¹ s⁻¹
[5]
  kon: 1.7e+06 M⁻¹ s⁻¹

## human plasmin (from UniProt P00747) (enzyme)
[7]
  generation of u-PA amidolytic activity from pro-u-PA (ng/ml equivalent two-chain u-PA per min): 0.6
